Square brackets hold non-standard residues; d marks the D form. Primed or numbered codes have the meaning given here. Ends that are not written are not given here. FITC′ = fluorescein isothiocyanate (ϕ)

Consider eleven molecules from PMC3404088, “Development of a Small D-Enantiomeric Alzheimer’s Amyloid-β Binding Peptide Ligand for Future In Vivo Imaging Applications” (PLoS ONE, 2012).

To fix the notation:
B1: [^19F]-ACI-89-Kϕ (peptide)
peptide: [dP][dS][dH][dY][dR][dH][dI][dS][dP][dA][dQ][dK][dK](FITC′)
modifications: also: [19F]-4-fluorobenzoyl label, place not given here
notes: D-enantiomeric derivative of ACI-80 (D1): Q1P, V12K, added C-terminal lysine, fluorinated; also called D1-Q1P-V12K-K[^19F]ϕ; source: synthetic peptide, reacted with [^19F]-N-succinimidyl-4-fluorobenzoate (SFB), HPLC purified
B2: ACI-82-Kϕ (peptide)
peptide: [dS][dH][dY][dR][dH][dI][dS][dP][dA][dQ][dV][dK](FITC′)
notes: D-enantiomeric derivative of ACI-80 (D1): N-terminal glutamine deleted (Q1X), added C-terminal lysine; also called D1-Q1X-Kϕ; source: synthetic peptide (JPT Peptide Technologies GmbH, Berlin)
B3: ACI-85-Kϕ (peptide)
peptide: [dS][dF][dY][dR][dH][dI][dS][dP][dA][dQ][dV][dK](FITC′)
notes: D-enantiomeric derivative of ACI-80 (D1): N-terminal glutamine deleted (Q1X), H3F, added C-terminal lysine; also called D1-Q1X-H3F-Kϕ; source: synthetic peptide (JPT Peptide Technologies GmbH, Berlin)
B4: ACI-88-Kϕ (peptide)
peptide: [dS][dH][dY][dR][dH][dI][dS][dP][dA][dQ][dK][dK](FITC′)
notes: D-enantiomeric derivative of ACI-80 (D1): N-terminal glutamine deleted (Q1X), V12K, added C-terminal lysine; also called D1-Q1X-V12K-Kϕ; source: synthetic peptide (JPT Peptide Technologies GmbH, Berlin)
B5: [^19F]-ACI-88-Kϕ (peptide)
peptide: [dS][dH][dY][dR][dH][dI][dS][dP][dA][dQ][dK][dK](FITC′)
modifications: also: [19F]-4-fluorobenzoyl label, place not given here
notes: D-enantiomeric derivative of ACI-80 (D1): N-terminal glutamine deleted (Q1X), V12K, added C-terminal lysine, fluorinated; also called D1-Q1X-V12K-K[^19F]ϕ; source: synthetic peptide, reacted with [^19F]-N-succinimidyl-4-fluorobenzoate (SFB), HPLC purified
B6: ACI-89-Kϕ (peptide)
peptide: [dP][dS][dH][dY][dR][dH][dI][dS][dP][dA][dQ][dK][dK](FITC′)
notes: D-enantiomeric derivative of ACI-80 (D1): Q1P, V12K, added C-terminal lysine; also called D1-Q1P-V12K-Kϕ; source: synthetic peptide (JPT Peptide Technologies GmbH, Berlin)
B7: ACI-83-Kϕ (peptide)
peptide: [dP][dS][dH][dY][dR][dH][dI][dS][dP][dA][dQ][dV][dK](FITC′)
notes: D-enantiomeric derivative of ACI-80 (D1): Q1P, added C-terminal lysine; also called D1-Q1P-Kϕ; source: synthetic peptide (JPT Peptide Technologies GmbH, Berlin)
B8: ACI-86-Kϕ (peptide)
peptide: [dP][dS][dF][dY][dR][dH][dI][dS][dP][dA][dQ][dV][dK](FITC′)
notes: D-enantiomeric derivative of ACI-80 (D1): Q1P, H3F, added C-terminal lysine; also called D1-Q1P-H3F-Kϕ; source: synthetic peptide (JPT Peptide Technologies GmbH, Berlin)
B9: ACI-87-Kϕ (peptide)
peptide: [dQ][dS][dH][dY][dR][dH][dI][dS][dP][dA][dQ][dK][dK](FITC′)
notes: D-enantiomeric derivative of ACI-80 (D1): V12K, added C-terminal lysine; also called D1-V12K-Kϕ; source: synthetic peptide (JPT Peptide Technologies GmbH, Berlin)
B10: [^19F]-ACI-87-Kϕ (peptide)
peptide: [dQ][dS][dH][dY][dR][dH][dI][dS][dP][dA][dQ][dK][dK](FITC′)
modifications: also: [19F]-4-fluorobenzoyl label, place not given here
notes: D-enantiomeric derivative of ACI-80 (D1): V12K, added C-terminal lysine, fluorinated; The text says V12K was made to enable fluorination; also called D1-V12K-K[^19F]ϕ; source: synthetic peptide, reacted with [^19F]-N-succinimidyl-4-fluorobenzoate (SFB), HPLC purified
B11: ACI-80-Kϕ (peptide)
peptide: [dQ][dS][dH][dY][dR][dH][dI][dS][dP][dA][dQ][dV][dK](FITC′)
notes: D-enantiomeric peptide ACI-80 (D1), selected by mirror image phage display on aggregated Aβ1–42, with an added C-terminal lysine; also called D1-Kϕ; source: synthetic peptide (JPT Peptide Technologies GmbH, Berlin)

T2 sequence (P05067 672-713): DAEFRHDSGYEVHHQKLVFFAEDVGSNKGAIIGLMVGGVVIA

The target in one experiment is T1, Aβ1–42 fibrils (UniProt P05067 672-713).
T1 construct: amyloid-β peptide Aβ1–42, cut from the amyloid precursor protein (APP), in fibrillar form; Aggregated (fibrillar) state of the same peptide as m15; also called fibrillar Aß1–42; Aβ fibrils; source: bought: JPT Biotech or Bachem AG (HPLC purified peptide); fibrils formed at 37°C (7 days in PBS pH 7.4 for SPR; five days in 50 mM Tris-HCl pH 7.4 for ELISA)
T1 sequence (P05067 672-713): as above
In words: SPR; Biacore 1000; Aβ1–42 fibrils (6800 RU) immobilised on a CM5 chip by amine coupling; PBS pH 7.4; analytes 50 µg/ml, 5 µl/min for 2 minutes, ambient temperature; semi-quantitative: response in % of ACI-80-Kϕ. As to conditions: both partners purified. (Surface plasmon resonance follows binding to a sensor surface in real time, without labels.)
As to B1, the “Dissociation [%] (response 60 s after end of injection, relative to ACI-80-Kϕ)” value came to 0% and the “Interaction [%] (maximal response during injection, relative to ACI-80-Kϕ)” value amounted to 476%.

On to B2, for which the “Dissociation [%] (response 60 s after end of injection, relative to ACI-80-Kϕ)” value came out at 300% and the “Interaction [%] (maximal response during injection, relative to ACI-80-Kϕ)” value is 393%.

On to B3, for which the “Dissociation [%] (response 60 s after end of injection, relative to ACI-80-Kϕ)” value was found to be 40% and the “Interaction [%] (maximal response during injection, relative to ACI-80-Kϕ)” value was 229%.

Consider B4, for which the “Dissociation [%] (response 60 s after end of injection, relative to ACI-80-Kϕ)” value was determined as 667% and the “Interaction [%] (maximal response during injection, relative to ACI-80-Kϕ)” value worked out at 365%.

As to B5, the “Dissociation [%] (response 60 s after end of injection, relative to ACI-80-Kϕ)” value was determined as 1230% and the “Interaction [%] (maximal response during injection, relative to ACI-80-Kϕ)” value turned out to be 294%.

Regarding B6, the “Dissociation [%] (response 60 s after end of injection, relative to ACI-80-Kϕ)” value came to 533% and the “Interaction [%] (maximal response during injection, relative to ACI-80-Kϕ)” value was 518%.

Take B7: the “Dissociation [%] (response 60 s after end of injection, relative to ACI-80-Kϕ)” value turned out to be 200% and the “Interaction [%] (maximal response during injection, relative to ACI-80-Kϕ)” value is 600%.

With B8, the “Dissociation [%] (response 60 s after end of injection, relative to ACI-80-Kϕ)” value stood at 40% and the “Interaction [%] (maximal response during injection, relative to ACI-80-Kϕ)” value was found to be 21%.

Take B9: the “Dissociation [%] (response 60 s after end of injection, relative to ACI-80-Kϕ)” value is 443% and the “Interaction [%] (maximal response during injection, relative to ACI-80-Kϕ)” value was determined as 324%.

As for B10, the “Dissociation [%] (response 60 s after end of injection, relative to ACI-80-Kϕ)” value stood at 67% and the “Interaction [%] (maximal response during injection, relative to ACI-80-Kϕ)” value is 153%.

In another experiment the target is T1, Aβ1–42 fibrils. In words: ELISA; Aβ1–42 fibrils coated on the plate (10 µg/ml, bicarbonate-carbonate buffer pH 9.6); D-compounds from 10 µg/ml, 2 h at 37°C; detected by anti-fluorescein isothiocyanate-AP, pNPP 2.5 h. As to conditions: both partners purified.
For the molecule B1, the “% binding relative to ACI-80-Kϕ” value was determined as 207% and the “binding value (ELISA, 10 ug/mL compound)” value came out at 1.86.

Turning to B2, the “% binding relative to ACI-80-Kϕ” value was 142% and the “binding value (ELISA, 10 ug/mL compound)” value was 1.28.

B3: the “% binding relative to ACI-80-Kϕ” value came to 111% and the “binding value (ELISA, 10 ug/mL compound)” value was determined as 1.

B4: the “% binding relative to ACI-80-Kϕ” value stood at 198% and the “binding value (ELISA, 10 ug/mL compound)” value is 1.78.

As for B5, the “% binding relative to ACI-80-Kϕ” value is 196% and the “binding value (ELISA, 10 ug/mL compound)” value is 1.76.

For B6, the “% binding relative to ACI-80-Kϕ” value was 165% and the “binding value (ELISA, 10 ug/mL compound)” value came out at 1.49.

In the case of B7, the “% binding relative to ACI-80-Kϕ” value worked out at 167% and the “binding value (ELISA, 10 ug/mL compound)” value came to 1.5.

For the molecule B8, the “% binding relative to ACI-80-Kϕ” value stood at 138% and the “binding value (ELISA, 10 ug/mL compound)” value came to 1.24.

On to B9, for which the “% binding relative to ACI-80-Kϕ” value came to 103% and the “binding value (ELISA, 10 ug/mL compound)” value was found to be 0.93.

As to B11, the “% binding relative to ACI-80-Kϕ” value came to 100% and the “binding value (ELISA, 10 ug/mL compound)” value worked out at 0.9.

On to B10, for which the “% binding relative to ACI-80-Kϕ” value was 140% and the “binding value (ELISA, 10 ug/mL compound)” value amounted to 1.26.

A further experiment concerns the target T2, Aβ1–42 peptide film (mostly monomeric Aβ1–42) (UniProt P05067 672-713).
T2 construct: amyloid-β peptide Aβ1–42, cut from the amyloid precursor protein (APP), freshly dissolved peptide film containing mostly monomers and smaller oligomers; Same peptide as m14, not fibrillised; also called Aβ1–42 monomers; Aβ peptide film; source: bought: Bachem (lyophilized powder); HFIP film, reconstituted with 0.54% DMSO in PBS
As to the kind of experiment: ELISA; Aβ1–42 peptide film (mostly monomers) coated on the plate (10 µg/ml, bicarbonate-carbonate buffer pH 9.6); D-compounds from 10 µg/ml, 2 h at 37°C; detected by anti-fluorescein isothiocyanate-AP, pNPP 2.5 h. As to conditions: both partners purified. (In general: ELISA stands for enzyme-linked immunosorbent assay.)
Turning to B1, the “% binding relative to ACI-80-Kϕ” value came out at 243% and the “binding value (ELISA, 10 ug/mL compound)” value was 1.19.

For the molecule B2, the “% binding relative to ACI-80-Kϕ” value amounted to 167% and the “binding value (ELISA, 10 ug/mL compound)” value amounted to 0.82.

Take B3: the “% binding relative to ACI-80-Kϕ” value was 129% and the “binding value (ELISA, 10 ug/mL compound)” value was 0.63.

For the molecule B4, the “% binding relative to ACI-80-Kϕ” value worked out at 263% and the “binding value (ELISA, 10 ug/mL compound)” value is 1.29.

Consider B5, for which the “% binding relative to ACI-80-Kϕ” value was determined as 214% and the “binding value (ELISA, 10 ug/mL compound)” value is 1.05.

For B6, the “% binding relative to ACI-80-Kϕ” value was found to be 216% and the “binding value (ELISA, 10 ug/mL compound)” value was found to be 1.06.

B7: the “% binding relative to ACI-80-Kϕ” value came to 214% and the “binding value (ELISA, 10 ug/mL compound)” value stood at 1.05.

For the molecule B8, the “% binding relative to ACI-80-Kϕ” value stood at 163% and the “binding value (ELISA, 10 ug/mL compound)” value is 0.8.

On to B9, for which the “% binding relative to ACI-80-Kϕ” value came out at 122% and the “binding value (ELISA, 10 ug/mL compound)” value was found to be 0.79.

Turning to B11, the “% binding relative to ACI-80-Kϕ” value turned out to be 100% and the “binding value (ELISA, 10 ug/mL compound)” value was 0.49.

With B10, the “% binding relative to ACI-80-Kϕ” value came to 176% and the “binding value (ELISA, 10 ug/mL compound)” value came to 0.86.

In the next experiment the target is T1, Aβ1–42 fibrils. As to the kind of experiment: SPR; Biacore T100, single-cycle mode, 25°C; Aβ1–42 fibrils immobilised on a CM5 chip by amine coupling; PBS pH 7.4, 30 µl/min; 100 to 62500 nM in fivefold steps, 60 s each; heterogeneous ligand model. As to conditions: both partners purified.
B4: the “K D1 (heterogeneous ligand model, site 1)” value was determined as 4.22e-07; the “K D2 (heterogeneous ligand model, site 2)” value came to 5.95e-05; the “k off1 (heterogeneous ligand model, site 1)” value (from here on “k off1”) was 0.00722; the “k off2 (heterogeneous ligand model, site 2)” value (shortened to “k off2”) worked out at 0.0553. Besides, the “k on1 (heterogeneous ligand model, site 1)” value (“k on1” below) was 17100 and the “k on2 (heterogeneous ligand model, site 2)” value (“k on2” for short) was determined as 930.

B6: the “K D1 (heterogeneous ligand model, site 1)” value is 8e-06; the “K D2 (heterogeneous ligand model, site 2)” value was 3.53e-06; the “k off1” value stood at 0.162; the “k off2” value worked out at 0.0118. For the same molecule, the “k on1” value worked out at 20300 and the “k on2” value came out at 3340.

Consider B9, for which the “K D1 (heterogeneous ligand model, site 1)” value came to 8.93e-06; the “K D2 (heterogeneous ligand model, site 2)” value turned out to be 2.59e-05; the “k off1” value is 0.00184; the “k off2” value amounted to 0.0407. In addition, the “k on1” value stood at 206 and the “k on2” value came out at 1570.

Regarding B11, the “K D1 (heterogeneous ligand model, site 1)” value worked out at 5.38e-05; the “K D2 (heterogeneous ligand model, site 2)” value came to 0.000115; the “k off1” value is 0.0252; the “k off2” value was 1.58. Besides, the “k on1” value came to 469 and the “k on2” value came to 13700.
